# Residue numbers refer to the chain shown, from its start.
# B1: H3_W99H_VL-par (antibody, V domains shown)
# VH: QVQLVESGGGVVQPGRSLRLSCAASGFTFSDYGMHWVRQAPGKGLEWVAYISSGGTTIYYADTVKGRFTISRDNSKNTLYLQMNSLRAEDTAVYYCARHTNLYAMDYWGQGTTVTVSS
# VL: DIVLTQSPDSLAVSLGERATINCRASKSVSTSGYSYMHWYQQKPGQPPKFLIYLASNLESGVPDRFSGSGSGTDFTLTISSLQAEDVAVYYCQHSREVPYTFGGGTKVEIKR
# B2: H3_W99H_L2 (antibody, V domains shown)
# VH: B1 VH
# VL: B1 VL with L58K
# B3: H3_W99H_L1 (51B12_W99H_L1) (antibody, V domains shown)
# VH: B1 VH
# VL: B1 VL with S32Q
# B4: 51B12 parent (51B12_VH_VL-par) (antibody, V domains shown)
# VH: B1 VH with H99W
# VL: B1 VL
# Biological target: T1, huZIP12-ECD-GST (human, UniProt Q504Y0)
# Test: SPR, extended dissociation re-test
row,Kd [nM],Binder
1,~0.3,B1
2,~0.3,B2
3,~0.3,B3
4,1.1,B4

# Biological target: T1, huZIP12-ECD-GST
# Test: SPR
row,Kd [nM],Binder
1,~0.5,B1
2,~0.5,B2

# Source: patent publication US20260297183 (published 2026)
